Measurements taken from FireProtDB (doi:10.1021/bi00185a025).

Conditions: Escherichia coli (strain K12); pH 7; 25 °C; Urea; CD; Sodium phosphate 5 mM; reversible: yes; whole UniProt chain shown

B1: Chemotaxis protein CheY wild type, P0AE67 (protein)
chain: MADKELKFLVVDDFSTMRRIVRNLLKELGFNNVEEAEDGVDALNKLQAGGYGFVISDWNMPNMDGLELLKTIRADGAMSALPVLMVTAEAKKENIIAAAQAGASGYVVKPFTAATLEEKLNKIFEKLGM
With B1 the denaturant m value was 1.6 kcal/mol/M, the “denaturant midpoint (higher = more stable)” value was 3.25 M and the unfolding free energy was 5.2 kcal/mol.
